# Test: label from the status in PepcDB records
row,Sequence,protein production
1,MTELVQQLALLDALLSNWDGVLVRMGAPDVLRDEALAALAVKLSSAESPDDLDLLLDDLFDLVEDTPAYDYVRGLIARARLDTGTVAKTRGGYAGELVSDDEKSLLFGASRLAGRALGNAVSADVEPCQVEVFFATNRKSSDASDLQFTGEHDAGGYTCGVAHVTIPVGVHRAGVLEGKRWWHLLREKDDSRRYVVLGSVEKLAEDLFTTRIVEGAPECRDLLVFLHGFNVTFEDAARQAAQFAFDLQFQGRVVLYSWPSLGSLAGYCADEERAFLSNGRFAGFLGMLEDGPWDKVHILAHSMGNRVMLYGLSGNSWPNGRISQVVFAAADVYVETFRELFPKIREKAALYTSYTSKKDRALLISGILHKAKRIGISRGEPFVMDGLETIDASKVDNGFPGHGYFAEETKLIEDISQLLGKGLSAGRRKLYQPPSKAYWDFR,failed
2,MQSTDLGNKESGKIWHRKPSPATHDGIIVNIVHSTSEYHPKVLRFLNVAFDGSGDSFIAGDHQGNIYVFDLHGNRFNLVQRTAQACTALAFNLRRKSEFLVALADYSIKCFDTVTKELVSWMRGHESSVCSISVHASGRYAITTSSDTAQLWDLDTFQRKRKLNIRQSVGIQKVFFLPLSNTILSCFKDNSIFAWECDTLFCKYQLPGPPEGSNILYKVFAVTRDGRILAAGGKSNHLHLWCLEATGLFRIIQMPAKVRAVRHLEFLPDSFDAGSNQVLGVLSQDGIMRFVNIQTCKLLFEIGTVEEGISSSVISPHGRYIASIMENGSLNVYSVQALTQEINKPPPPLVKVIEDLPSNTVSSSNLKMKIMPGRVQRPARCKESKIPTRVLKQDLTGDLENKENELSEGLNKKRLQILLKGYGEYPTKYRMFIWRSLLQLPENHTAFSSLVDKGTHAAYLSLQKKYPIKSRKLLRVLQRTLSALAHWSAIFSDTPYLPLLAFPFVKLFQNNQLICFEVVATLIINWCQHWFEYFPNPPINILSMIENVLAFHDKELLQHFIDRDITSQVYAWPLLETLFSEVLTREEWLRLFDNIFSNHPSFLLMTVVAYSTCSRAPLLNCTLKNDFEYFFHHRNNLDINVVIREVYHLMETTPADIHPNSMLDAFVALTKGQYPIFNQYPKFIVDYQTREWERIRNDELDFLRERQTVENMQAEVDEQRAKDEAWYQKQELLRRAEETRREILLQEEEKMAQQRQRLAAVKRELEIKEIHLQDAARRRLLKLQQDQREMELRRLEDEIERKVQMRDQEIAATAKDLEIRQLELEAQKRLYEKYSFSLSFMQNIV,failed
3,MTDKTSLSYKDAGVDIDAGNALVGRIKGVVKKTRRPEVMGGLGGFGALCALPQKYREPVLVSGTDGVGTKLRLAMDLKRHDTIGIDLVAMCVNDLVVQGAEPLFFLDYYATGKLDVDTASAVISGIAEGCLQSGCSLVGGETAEMPGMYHGEDYDVAGFCVGVVEKSEIIDGSKVSDGDVLIALGSSGPHSNGYSLVRKILEVSGCDPQTTELDGKPLADHLLAPTRIYVKSVLELIEKVDVHAIAHLTGGGFWENIPRVLPDNTQAVIDESSWQWPEVFNWLQTAGNVEHHEMYRTFNCGVGMIIALPAPEVDKALALLNANGENAWKIGIIKASDSEQRVVIE,not failed
4,MTGHIDPTKEVFAQFRANDREGPIHMLNLVRLRPRAAYPDGRETTGAEAYAAYGRDSGPVFERLGGKVVWQGQFELMLIGPQDEHWDHVFIAEYPSVAAFVEMIRDPVYREAVKHRQAAVEDSRLIRLKPLKPGKGFGEIPT,not failed
5,REVPRCLADLGNGSVHGYRAGRVLSDSGPTGRVGEELMRSFASFFVRTASVPVAELPARPEGWPRDGDTQGFLDWLVHFTERRVHRPNRDRFGALFDAVGVPEDAMARFAAGHRCRAVRPFRLLHTDVHRANVVVRGRRLAVIDWELAILGDPLHDLATHLVRMAYGKEEQGRMVDLWAEAMADAGFTDLTAGLHEDLPVYVAFEYAQSVFPDVMRAAIDLPQ,failed
6,MNPANGEVTSYWFPGTTSGILTRNGSMIHLLSITASVLHPDDPSLSERESVQVQQYRLSSLLAAVLLPVFGTLYSWADPQAVDPAWIRLALSGLLLGLFVGSYLSDRVCRNYVPLT,failed
7,MTNPEATDKEGKNYALFIGDTVLVGEQSPASVMTPSKKKIKNVGIFIKDDSDEEDVDDKKTAKEDQGTEILGRSKRNAVLESKLRNEINTEEKRKEHQRELAQQLNERAKDRLARQGNSKEVEKVRKNTVSYKSISQMPREPEVKELKLYVDKKYETV,failed
8,MMRRQASVLLLVSMVSATVLPVFARAPGEREPSCAATSIVLPAGARYPNGIAHAADGTLYVGLVTSGRILRKPPGGEWETFFAGSPAIFAATALRLDEPRGLLWGNSPDFLPAGRRRPHGVFALDLASGAVRRYLTLPGDGMGNDLAVAPDGTVYLSETRDGSLMRLRPGEPAFQVLLRDSRLAGPGGLGAAGIVRVDDDTLLVGNFGSGAIHVVEGVATRPRLREMELPRTLENPDGMALAPDGSLIVLENAIRSGAGKVLRIAEPLAPGRRGIEVIREGLESPVNLTVTGQGCAYVSESRIRHRLLPGREGEVPARFLIHRLPLDAAGGR,failed
9,MAGDYHRGEMDIQEQAATYDAFGKMTKWGSLAISVLLLFFTLLFCTSAGFIGSAIASIVLLVLGVVLLKEKPTQSH,failed
10,VDWTDAERSAIVGLWGKISVDEIGPQALARLLIVSPWTQRHFSTFGNLSTPAAIMGNPAVAKHGKTVMHGLDRAVQNLDDIKNTYATLSVMHSEKLHVDPDNFRLLADCITVCVAAKLGPAVFSADTQEAFQKFLAVVVSALGRQYH,not failed
11,MLLKQRINANVLVQDGDEPSEDPNELIKQVFALTQESNQLICRIHSTNAQAKLEDGKILLSLLSLRDSYAEQHKILIDAIANTHREPDRYSSREIKWKKVIPVSSLQKQADDISAKLRDLNVKIQAANWQIDLINLEHHHHHH,failed
12,MSSVGDFEEIILHDLKPYYHVPGAIHSEGITFVKETGTLLWVDIFKGEVHKVEDIEQPESSHSFFSISRANYGKNASIEYPPNPDELKESVGCIFPILDGASQNEIKQVLFGSKFGIGKLDFSKSEWEYVILYSECPELSTDRAYKLRSNDGNVSPDGKYIYVGLMSDFPFDLEPIGCLLRVDLLAHKIELVWNCLLIPNAIHWDESDQKTMYVTDSLNFTIWKCPGGDLLKRDELIDVKNSNNQSFESPEPDGSAIWFSKDGKHSGFLFITVWSTSKVQMFDLTNGKLLKEFILPEQTPRVSCCCFVGKDLFVTTANAEINDAVRTNTDKNGGCIYKIPNVLDGNVPLESTKRQPLH,failed
13,MSVDAVEIETLRKTVEDYFCFCYGKALGKSTVVPVPYEKMLRDQSAVVVQGLPEGVAFKHPENYDLATLKWILENKAGISFIIKRPFLEPKKHVGG,not failed
14,MGHHHHHHSHRGAGRVSRWPPPHWLEAWRVSPRPLSPLSPATFGRGFIAVAVIPGLWARGRGCSSDRLPRPAGPARRQFQAASLLTRGWGRAWPWKQILKELDECYERFSRETDGAQK,failed
15,MISASWKSAGKTTVSLGLLRLLAENGVPVVSFKKGPDYIDPMWHRVASSGECYNLDTWMMGEAACRDTFIRNCARRPGSIALIEGNHGLHDGMDMAGADSSAGLAALLDAPVLLVIDSRRMNRGVAAQVLGLQAMPPKVRIAGVILNHVTSSRQESKQRAAIETFCNVPVLGAIPADSSLLLPERHLGLVTVGEASDAEAFIRVAAQQVERHCDFAAIRKLFEEASPLSHSEPREVFSPKKEATVKIGVFRDAAFCFYYPDNLDALRDAGAELVFIDTFKTTALPEIDGLYLGGGFPESFFAELSANTSLLRDMRGRIEAGIPAWAECGGLIYLCRSATWEGRQWPLASVLPIDIAYQRKPAGCGYLELESRAGSGWFPVGERVRAHEFHYSKPVAGNVDLACQFDVARGFGLTGREDGLLYRNLFASYAHFHAAANPGWAERFVGLALKFKEQGRLERD,failed
16,MAVNVYSTSVTSENLSRHDMLAWVNDSLHLNYTKIEQLCSGAAYCQFMDMLFPGCVHLRKVKFQAKLEHEYIHNFKVLQAAFKKMGVDKIIPVEKLVKGKFQDNFEFIQWFKKFFDANYDGKDYNPLLARQGQDVAPPPNPGDQIF,not failed
17,MLDLVSSKTTPVFSLVAFAVIHSLTASLPFKRMVMKAAGPRAEKLYLPAYSLVAVLTVLPLAYQLYKNPGRILYKIPSPWRWLMVGGQVIAGILAPMAFWNAPHRFKIRSQLSGPQASEEGSLKIKGIYRWVRDPFLLSGLVVMLLTPFMTVNLLIVYLLTTVYLFLGSLHWETRLVAQFGDEYREYQKKVHRIIPELKGSVKNPGDKASE,failed
18,MYKCLIISILTWFSCIVSVYAQAIPKEARNYLEEGKIYYDGANYLKALDSYLGAYKFVPNDPGVNYSIALCYIQTYSYDKALTYLIPAKKAGIKDPLLDYYMGLAYHANSNIDEALKSLTAFQSTLRSSDKELTAQTAKYITYCNNAKTLMLTPVKMTITNLGASVNSAYPDYNPAISVDESTIIYTSRRPNSTGGLISEMDGHYFEDIYMSNKQTNNSWGTSIQIDQTINTTSHDACVGLSSEGQTMIVYKDDGGGDLYYSNLSGQNWSKPISFGKAINTDGWEACGNFSPDGNYLFFVSNKKGGFGGTDIYYAVKNAAGVWGAPVNMGPEINTKEDEFSPYLHADGKTFYFSSQAHTSMGGFDIFQSTIDLSMQPIAVKSKPENLGYPINTVGDEIYFVWSADNKRAYFSSAREGGLGDKDLYLLERPVAKAALVLLKGTISDCKTKEFIQASITVTDIESGKLIGKYVSNSSTGKYIVTLPAGKNYSITVEAKGYLFHSKNINIPKLEEFKEIDDVICLDKIDIGTTIVLNNVFFDVNKSTLRKESETELDKLFDILSKNPKIKIEVAGHTDSDGDTQANLTLSDARAHTVKDYLIGKGISADRIIYVGHGEGKPVVPNDTPENKQLNRRTEIKILEN,failed
19,MRRSDLHGTSIEIERKNVGERRYITGFDGLRVMALLGVIFYHLMPFTVPGGYLGVPIFFAVSGYLITDIFIQEWDRTGKIKLGSFYIRRLRRLYPTLVMVLVTSTAYMTLFAQNLLSHIRNIIWTNLVFVYNWWLVNNGQSYFDRYNGESPFTHLWYLSVLAQYYFIWPLILIVLLKIFGERRVQASGILFSLSIISSMLMTILYHPDTVNRVYYGSDTRVAPFLIGAALAFIWPSTRLKKALNARTNLIANILGGILILVMGITFFTMPGTTATPYYGGIFIFSILAVLMIAIIAHPSFMWNRLLTNPVFKWLGSRSYGIYMYQLPVMIFYEQKVTNIAAHPVLNTLAPLVIILVISELSYRYIEIPLAKFDYRQTFALLKKIFDLKSNLQWRRYLAIPAVLVVLIALFGAVTSPEKVVQKTDGLQTKLAKNSKEADKKNKEALEKQKETSAAKTKQKKAKLTKQEKEIAKKYQLTDQEMKFAAVTPLTGVGDSVLEDTGADLQEIFPTAYMSSKVGRQVDEAPGIIAELKRQKTLSDNVLINLGANGPISDKDVKAVEDAVGSKRHIFWVNVHVPTKTWEGSVNKTLDKATKQYKNLTVIDWFTPSKNQPGWFYGDYVHPNPDGSKQYATIVAKKIIKTLNK,failed
20,MSESTAPSDTVLLRGGEVHSPADPFATAMVVERGQVAWVGSEGAADAFSAGVDEVVDLEGALVTPAFTDAHVHTTSTGLALTGLDLSGAPSLEAALALVRDFAAARPDDRVLLGHGWDTARWPGGRPPTRAELDEAADGRPLYLSRIDVHSAVVSTALLDLVPGITGRAGYLDGPLTRDAHHAVRGAALGAVSPAQRTEAQRAALAHAASLGIGSVHECAGPEISSEDDFTGLLRLAAEETGPRVVGYWAEWGEEGIDRARALGAVGAAGDLFVDGALGSHTACLHQPYSDAGHTGTAYLDDDAVAAHVIACTEAGLQAGFHAIGDAAVTSVVEGVRAAAEKVGLARVRAARHRVEHAEMLTPETIAAFAELGLTASVQPAFDALWGGADGMYAQRLGAERARTLNPFAALLRAGVPLAFGSDSPVTPLDPWGTVRAAAFHRTPEHRVSVRAAFTAHTRGGWRAIGRDDAGVLVPGAPADYAVWRTEELVVQAPDDRVARWSTDPRSGTPGLPDLTPGGDLPVCLRTVVGGRTVFVRPNE,failed
21,MAKKDNFEEYAQLEEYASAEDISRVRAELLTCPELNTSLAGTIIEIDKNYAKSILITTSEMVADDQGLIFDAFIFAAANYVAQASINKEFSVIIGSKCFFYAPLKLGDVLELEAHALFDETSKKRDVKVVGHVKEVKMFEGTIQVVSTDEHIFKLKRPPLNTVKPTENQEQGAKINNPEAVAAALMASVGGK,failed

# Source: a protein production outcome set (Wang et al. 2014)
